Source: PMC2120044 (The Journal of Cell Biology, 1994)

Biological target: the molecule itself
Test: SEC

B1: cofactor A purified from bovine testis (natural protein, UniProt P48427 1-108, looked up)
chain: MADPRVRQIKIKTGVVKRLVKEKMMYEKEAKQQEEKIEKMKAEDGENYAIKKQAEILQESRMMIPDCQRRLEAAHTDLLQLLESEKDLEEAEEYKEARLVLDSVKLEA
stoichiometry N: 2
